Test results from US20080199851A1.
Values joined by “and” are separate entries in the source; they are usually repeats but may differ in a detail not shown here. Equal values may be shown once.

How the values were obtained:
[1] = molecular target: Recombinant H5 hemagglutinin; assay: lateral-flow sandwich, 3C8 line + 3G4-gold, 50 uL buffer, 15 min
[2] = molecular target: Recombinant H5 hemagglutinin; assay: lateral-flow sandwich, 3C8 line + 3G4-gold, 70 uL buffer, 20 min
[3] = molecular target: Recombinant H5 hemagglutinin; assay: lateral-flow sandwich, 3C8 line + 3G4-gold, 80 uL buffer, 15 min
[4] = molecular target: Recombinant H5 hemagglutinin; assay: lateral-flow sandwich, 3C8 line + 3G4-gold, 70 uL buffer, 30 min
[5] = molecular target: Recombinant H5 hemagglutinin; assay: lateral-flow sandwich, 3C8 line + 3G4-gold, 50 uL buffer, 20 min
[6] = molecular target: Recombinant H5 hemagglutinin; assay: lateral-flow sandwich, 3C8 line + 3G4-gold, 100 uL buffer, 20 min
[7] = molecular target: Recombinant H5 hemagglutinin; assay: lateral-flow sandwich, 3C8 line + 3G4-gold, 60 uL buffer, 15 min
[8] = molecular target: Recombinant H5 hemagglutinin; assay: lateral-flow sandwich, 3C8 line + 3G4-gold, 80 uL buffer, 20 min
[9] = molecular target: Recombinant H5 hemagglutinin; assay: lateral-flow sandwich, 3C8 line + 3G4-gold, 70 uL buffer, 15 min
[10] = molecular target: Recombinant H5 hemagglutinin; assay: lateral-flow sandwich, 3C8 line + 3G4-gold, 100 uL buffer, 30 min
[11] = molecular target: Recombinant H5 hemagglutinin; assay: lateral-flow sandwich, 3C8 line + 3G4-gold, 60 uL buffer, 20 min
[12] = molecular target: Recombinant H5 hemagglutinin; assay: lateral-flow sandwich, 3C8 line + 3G4-gold, 80 uL buffer, 25 min
[13] = molecular target: Recombinant H5 hemagglutinin; assay: lateral-flow sandwich, 3C8 line + 3G4-gold, 70 uL buffer, 15 min; remark: listed apart in the source
[14] = molecular target: Recombinant H5 hemagglutinin; assay: lateral-flow sandwich, 3C8 line + 3G4-gold, 80 uL buffer, 30 min
[15] = molecular target: Recombinant H5 hemagglutinin; assay: lateral-flow sandwich, 3C8 line + 3G4-gold, 60 uL buffer, 15 min; remark: listed apart in the source
[16] = molecular target: Recombinant H5 hemagglutinin; assay: lateral-flow sandwich, 3C8 line + 3G4-gold, 100 uL buffer, 25 min
[17] = molecular target: Recombinant H5 hemagglutinin; assay: lateral-flow sandwich, 3C8 line + 3G4-gold, 50 uL buffer, 15 min; remark: listed apart in the source
[18] = molecular target: Recombinant H5 hemagglutinin; assay: lateral-flow sandwich, 3C8 line + 3G4-gold, 60 uL buffer, 25 min
[19] = molecular target: Recombinant H5 hemagglutinin; assay: lateral-flow sandwich, 3C8 line + 3G4-gold, 50 uL buffer, 30 min
[20] = molecular target: Recombinant H5 hemagglutinin; assay: lateral-flow sandwich, 3C8 line + 3G4-gold, 50 uL buffer, 25 min
[21] = molecular target: Recombinant H5 hemagglutinin; assay: lateral-flow sandwich, 3C8 line + 3G4-gold, 70 uL buffer, 25 min
[22] = molecular target: Recombinant H5 hemagglutinin; assay: lateral-flow sandwich, 3C8 line + 3G4-gold, 60 uL buffer, 30 min
[23] = molecular target: Recombinant H5 hemagglutinin; assay: lateral-flow sandwich, 3C8 line + 3G4-gold, 100 uL buffer, 15 min

B1: monoclonal antibody 3C8 (antibody, V domains shown)
VH: QIQLVQSGPELKKPGETVKISCKASGYSFTNYGMNWVKQAPGKGLKWMGWINTYTGEPAYADDFKGRFAFSLETSASTAYLQINNLKNEDTATYFCARWNRDAMDYWGQGTSVTVSS
VL: DIVLTQSPASLAVSLGQRATISCRASESVDSSDNSLMHWYQQKPGQPPKLLIYRASNLESGIPARFSGSGSRTDFTLTINPVEADDVATYYCQQSIGDPPYTFGGGTKLEIKR
Peak Intensity [1]: 55.6 and 51.1 | Peak Intensity [2]: 57.9 and 57 | Peak Intensity [3]: 39.6 and 42.9 | Peak Intensity [4]: 60.7 and 63.9 | Peak Intensity [5]: 62.3 and 57.3 | Peak Intensity [6]: 49.2 and 44.9 | Peak Intensity [7]: 50.2 and 51.2 | Peak Intensity [8]: 53.7 and 57.9 | Peak Intensity [9]: 45.6 and 42.1 | Peak Intensity [10]: 55.6 and 49.8 | Peak Intensity [11]: 65.7 and 63.8 | Peak Intensity [12]: 59.8 and 64.7 | Peak Intensity [13]: 46.8 and 47.9 | Peak Intensity [14]: 61.5 and 65.4 | Peak Intensity [15]: 53.5 and 51.6 | Peak Intensity [16]: 54.6 and 49.3 | Peak Intensity [17]: 56.9 and 57.8 | Peak Intensity [18]: 68.5 and 66.2 | Peak Intensity [19]: 62.5 and 62.6 | Peak Intensity [20]: 63.1 and 55.4 | Peak Intensity [21]: 60.4 and 61.7 | Peak Intensity [22]: 68.9 and 66.5 | Peak Intensity [23]: 35.2 and 30.8
